Data as given in PMC6796863, “Structural insight into human N6amt1–Trm112 complex functioning as a protein methyltransferase” (Cell Discovery, 2019).

Target: T1, human N6amt1–Trm112 complex (human, UniProt Q9Y5N5 1-214; Q9UI30 1-125)
T1 construct: human N6amt1 (HemK2), full length, 214 amino acids; human Trm112, full length; SAM co-purifies with the complex; before the ITC titration the complex was incubated with SAH at a molar ratio of 1:2; also called the protein complex; source: E. coli BL21(DE3), co-expressed from pET-Duet, purified (Ni-NTA, gel filtration)
T1 sequence (looked up) 1: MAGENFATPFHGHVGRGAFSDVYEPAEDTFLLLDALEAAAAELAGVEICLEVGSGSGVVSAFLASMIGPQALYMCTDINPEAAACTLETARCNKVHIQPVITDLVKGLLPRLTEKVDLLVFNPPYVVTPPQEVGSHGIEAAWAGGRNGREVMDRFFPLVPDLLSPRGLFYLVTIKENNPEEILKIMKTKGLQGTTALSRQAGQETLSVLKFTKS
T1 sequence (looked up) 2: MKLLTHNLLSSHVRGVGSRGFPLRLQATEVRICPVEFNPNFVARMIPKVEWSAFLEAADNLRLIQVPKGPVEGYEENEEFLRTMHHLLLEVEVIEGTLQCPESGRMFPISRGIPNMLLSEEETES
Assay: ITC; 2 mM peptide injected into 0.1 mM N6amt1–Trm112 in the cell, 20 °C; complex incubated beforehand with SAH at a molar ratio of 1:2; single binding site model
Conditions: both partners purified

Kd: 490 ± 150 µM
B1: Gln185-centered 15-residue peptide of human eRF1 (GGQ peptide) (peptide)
peptide: KKHGRGGQSALRFAR
notes: human eRF1, 15-residue peptide centered at Gln185; also called 15-residue GGQ peptide of eRF1
